Patent US5596072

Target: functional human IL-4 receptor (hIL-4R) on TF-1 cells (human) (UniProt P24394)
Experiment: displacement of I^125-hIL-4 from TF-1 cells

IC50: 0.2 nM
percent of the I^125-hIL-4 binding displaced: 70%
B1: mouse IL-13 (mouse P600), E. coli-derived (ligand)
chain: APGPVPRSVSLPLTLKELIEELSNITQDQTPLCNGSMVWSVDLAAGGFCVALDSLTNISNCNAIYRTQRILHGLCNRKAPTTVSSLPDTKI
